Results taken from patent US20100021477A1 (Janssen / Centocor, published 2010).
Residue numbers refer to the chain shown, from its start.

B1: Fab E7 (Fab, V domains shown)
VH: QVQLVQSGAEVKKPGSSVKVSCKASGGTFSSYAISWVRQAPGQGLEWMGGIIPIFGTANYAQKFQGRVTITADESTSTAYMELSSLRSEDTAVYYCAREGGEVYDWEYYLDYWGQGTLVTVSS
VL: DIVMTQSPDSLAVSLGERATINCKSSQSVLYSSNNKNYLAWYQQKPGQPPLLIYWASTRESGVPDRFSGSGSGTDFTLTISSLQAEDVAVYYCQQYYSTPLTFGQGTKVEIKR
notes: also called E7 (Hc/Lc)
B2: Fab E5 (Fab, V domains shown)
VH: QVQLVQSGAEVKKPGSSVKVSCKASGGTFSSYAISWVRQAPGQGLEWMGWIIPYNGNANYAQKFQGRVTITADESTSTAYMELSSLRSEDTAVYYCARHTPVRDLDYWGQGTLVTVSS
VL: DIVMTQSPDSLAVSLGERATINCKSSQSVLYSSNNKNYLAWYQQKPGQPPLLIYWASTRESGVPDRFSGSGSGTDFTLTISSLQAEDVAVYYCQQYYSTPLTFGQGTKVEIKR
notes: also called E5 (Hc/Lc)
B3: Fab C2 (Fab, V domains shown)
VH: QVQLVQSGAEVKKPGSSVKVSCKASGGTFSSYAISWVRQAPGQGLEWMGGIIPINGNANYAQKFQGRVTITADESTSTAYMELSSLRSEDTAVYYCARRAGMRVQTYYFFDYWGQGTLVTVSS
VL: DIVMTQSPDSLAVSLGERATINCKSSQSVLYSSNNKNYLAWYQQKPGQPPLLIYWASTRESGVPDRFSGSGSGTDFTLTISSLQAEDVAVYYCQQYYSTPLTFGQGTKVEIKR
notes: also called C2 (Hc/Lc)
B4: Fab D6 (Fab, V domains shown)
VH: QVQLVQSGAEVKKPGSSVKVSCKASGGTFSSYAISWVRQAPGQGLEWMGGIIPIFGTANYAQKFQGRVTITADESTSTAYMELSSLRSEDTAVYYCARGIIGINLVVLDYWGQGTLVTVSS
VL: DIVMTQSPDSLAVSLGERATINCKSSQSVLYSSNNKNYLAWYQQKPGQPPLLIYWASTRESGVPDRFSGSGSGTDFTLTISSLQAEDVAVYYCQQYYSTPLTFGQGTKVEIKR
notes: also called D6 (Hc/Lc)
B5: Fab F6 (Fab, V domains shown)
VH: B4 VH with I103T, N104I, L105T, V106Y, L108F
VL: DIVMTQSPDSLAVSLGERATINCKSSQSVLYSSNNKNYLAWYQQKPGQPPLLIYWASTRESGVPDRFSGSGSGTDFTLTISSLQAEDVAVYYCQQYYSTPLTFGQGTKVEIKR
notes: also called F6 (Hc/Lc)
B6: Fab F4 (Fab, V domains shown)
VH: QVQLVQSGAEVKKPGSSVKVSCKASGGTFSSYGISWVRQAPGQGLEWMGGIIPIFGTANYAQKFQGRVTITADESTSTAYMELSSLRSEDTAVYYCARDFGVYTWLGQTFDYWGQGTLVTVSS
VL: not shown
notes: also called F4 (Hc/Lc)
B7: Fab C6 (Fab, V domains shown)
VH: QVQLVQSGAEVKKPGSSVKVSCKASGGTFSSYGISWVRQAPGQGLEWMGGIIPIFGTANYAQKFQGRVTITADESTSTAYMELSSLRSEDTAVYYCARLCVSPAWDQCFDYWGQGTLVTVSS
VL: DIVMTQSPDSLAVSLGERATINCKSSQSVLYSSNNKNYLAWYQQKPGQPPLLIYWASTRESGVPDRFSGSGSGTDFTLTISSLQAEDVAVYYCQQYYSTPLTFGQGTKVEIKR
notes: also called C6 (Hc/Lc)
B8: Fab D11 (Fab, V domains shown)
VH: QVQLVQSGAEVKKPGSSVKVSCKASGGTFSSYAISWVRQAPGQGLEWMGGIIPIFGTANYAQKFQGRVTITADESTSTAYMELSSLRSEDTAVYYCARIRWGGWFRGYLDYWGQGTLVTVSS
VL: not shown
notes: also called D11(Hc/Lc)

Molecular target: T1, Bovine Serum Albumin (BSA) (bovine, UniProt P02769 25-607)
T1 sequence (P02769 25-607 limits assumed): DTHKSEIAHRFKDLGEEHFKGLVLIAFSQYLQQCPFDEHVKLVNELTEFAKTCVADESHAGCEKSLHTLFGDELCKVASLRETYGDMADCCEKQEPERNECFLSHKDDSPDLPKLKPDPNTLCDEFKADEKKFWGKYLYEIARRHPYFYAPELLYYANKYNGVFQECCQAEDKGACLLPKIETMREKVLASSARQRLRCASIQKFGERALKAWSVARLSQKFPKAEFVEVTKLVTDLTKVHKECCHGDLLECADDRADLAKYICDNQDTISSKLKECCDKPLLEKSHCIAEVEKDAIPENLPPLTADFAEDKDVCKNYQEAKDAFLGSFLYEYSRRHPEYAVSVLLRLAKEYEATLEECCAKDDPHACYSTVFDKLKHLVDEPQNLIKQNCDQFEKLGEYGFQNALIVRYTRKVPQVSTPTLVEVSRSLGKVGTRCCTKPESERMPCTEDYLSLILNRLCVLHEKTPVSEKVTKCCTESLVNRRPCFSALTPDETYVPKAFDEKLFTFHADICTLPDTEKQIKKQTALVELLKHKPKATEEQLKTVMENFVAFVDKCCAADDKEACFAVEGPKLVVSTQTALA
Experiment: BIAcore

| Binder | binding result |
| --- | --- |
| B1 | no binding |
| B2 | no binding |

Molecular target: T2, Hen-Egg White Lysozyme (HEL) (hen, UniProt P00698 19-147)
T2 sequence (P00698 19-147 limits assumed): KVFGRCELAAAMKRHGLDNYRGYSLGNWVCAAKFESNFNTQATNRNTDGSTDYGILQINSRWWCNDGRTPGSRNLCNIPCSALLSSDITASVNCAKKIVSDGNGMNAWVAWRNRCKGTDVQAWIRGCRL
Experiment: BIAcore

| Binder | binding result |
| --- | --- |
| B3 | no binding |
| B4 | no binding |
| B5 | no binding |
| B6 | no binding |
| B7 | no binding |
| B8 | no binding |

Molecular target: T1, Bovine Serum Albumin (BSA)
Experiment: BIAcore, BSA on the chip (40 RU)

| Binder | binding result |
| --- | --- |
| B7 | no binding |

Molecular target: T1, Bovine Serum Albumin (BSA)
Experiment: BIAcore, BSA on the chip (40 RU), purified Fab

| Binder | koff | kon |
| --- | --- | --- |
| B3 | 0.00169 s⁻¹ | 60000 M⁻¹ s⁻¹ |
| B4 | 0.00195 s⁻¹ | 572000 M⁻¹ s⁻¹ |
| B5 | 0.0113 s⁻¹ | 430000 M⁻¹ s⁻¹ |
| B6 | 0.00048 s⁻¹ | 51000 M⁻¹ s⁻¹ |

Molecular target: T2, Hen-Egg White Lysozyme (HEL)
Experiment: BIAcore, lysozyme on the chip (10 RU), purified Fab

| Binder | koff | kon |
| --- | --- | --- |
| B1 | 0.12 s⁻¹ | 460000 M⁻¹ s⁻¹ |
| B2 | 0.00233 s⁻¹ | 227000 M⁻¹ s⁻¹ |

Molecular target: T1, Bovine Serum Albumin (BSA)
Experiment: BIAcore, BSA on the chip (40 RU), purified Fab; apparent KD

| Binder | Kd |
| --- | --- |
| B3 | 28 nM |
| B4 | 4 nM |
| B5 | 26 nM |
| B6 | 9 nM |

Molecular target: T2, Hen-Egg White Lysozyme (HEL)
Experiment: BIAcore, lysozyme on the chip (10 RU), purified Fab; apparent KD

| Binder | Kd |
| --- | --- |
| B1 | 260 nM |
| B2 | 10 nM |
